Experimental data reported in patent US20220144960A1 (NANJING LEGEND BIOTECH, published 2022).

Tests used:
[1] = biological target: T1, CD30 on CD30-expressing tumor cell lines (HH, MJ, H9) (UniProt P28908 19-595); assay: cell-based or functional assay
T1 sequence (looked up): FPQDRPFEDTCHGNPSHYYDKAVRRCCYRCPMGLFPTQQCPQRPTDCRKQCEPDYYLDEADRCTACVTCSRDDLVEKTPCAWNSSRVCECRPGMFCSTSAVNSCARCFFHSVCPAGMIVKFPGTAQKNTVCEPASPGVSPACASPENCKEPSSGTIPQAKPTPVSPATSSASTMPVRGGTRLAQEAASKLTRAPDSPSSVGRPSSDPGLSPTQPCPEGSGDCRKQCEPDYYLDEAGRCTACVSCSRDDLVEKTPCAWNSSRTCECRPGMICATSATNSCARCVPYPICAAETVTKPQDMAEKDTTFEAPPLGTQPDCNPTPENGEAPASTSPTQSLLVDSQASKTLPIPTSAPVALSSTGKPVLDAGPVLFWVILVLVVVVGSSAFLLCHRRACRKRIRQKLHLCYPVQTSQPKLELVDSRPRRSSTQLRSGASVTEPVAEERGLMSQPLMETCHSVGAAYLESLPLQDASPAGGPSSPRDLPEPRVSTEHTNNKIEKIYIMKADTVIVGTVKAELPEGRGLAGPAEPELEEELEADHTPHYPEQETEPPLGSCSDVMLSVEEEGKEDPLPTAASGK

[2] = biological target: T1, CD30 on CD30-expressing tumor cell …; assay: cell-based or functional assay; remark: listed apart in the source
rhesus CD30 ECD = biological target: T2, rhesus CD30 ECD (rhesus, UniProt P28908 19-379 (human entry)); assay: ELISA on rhesus CD30 ECD protein; member of the group by paragraph 437
T2 construct: Produced in house; also called recombinant rhesus CD30; rhesus CD30 protein
T2 chain: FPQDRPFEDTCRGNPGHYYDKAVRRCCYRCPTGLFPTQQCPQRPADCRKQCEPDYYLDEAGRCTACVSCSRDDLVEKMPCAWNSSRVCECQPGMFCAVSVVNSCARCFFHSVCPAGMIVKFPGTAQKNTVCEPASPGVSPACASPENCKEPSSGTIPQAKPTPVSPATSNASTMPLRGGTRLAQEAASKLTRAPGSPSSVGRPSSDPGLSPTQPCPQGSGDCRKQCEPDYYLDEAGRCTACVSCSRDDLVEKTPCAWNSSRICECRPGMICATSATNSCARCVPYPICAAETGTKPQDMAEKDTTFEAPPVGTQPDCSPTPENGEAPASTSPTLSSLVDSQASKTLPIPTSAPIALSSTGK

[3] = biological target: T3, recombinant human CD30 extra cellular domain (ECD) protein (human, UniProt P28908 19-379); assay: SPR Biacore T200, His-tagged sdAb/Fab captured, 100.0 nM human CD30 as analyte, single curve
T3 construct: Bought from R&D systems; also called rhCD30; human CD30 ECD
T3 sequence: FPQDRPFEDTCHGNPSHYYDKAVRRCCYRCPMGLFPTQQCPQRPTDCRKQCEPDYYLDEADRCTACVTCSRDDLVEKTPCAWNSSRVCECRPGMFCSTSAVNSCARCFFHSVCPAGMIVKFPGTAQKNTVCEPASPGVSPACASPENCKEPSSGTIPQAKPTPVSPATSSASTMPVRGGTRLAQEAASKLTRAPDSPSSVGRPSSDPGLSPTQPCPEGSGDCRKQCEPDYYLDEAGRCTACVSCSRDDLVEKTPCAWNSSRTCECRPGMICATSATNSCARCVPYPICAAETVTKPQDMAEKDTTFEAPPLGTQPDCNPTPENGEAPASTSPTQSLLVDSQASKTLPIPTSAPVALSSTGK
Method: Some of these unique binders were subjected to for further characterization by surface plasmon resonance (SPR) on a BIAcore T200 instrument (GE Healthcare). The experiment was carried out as follows. The crude sdAb/Fab proteins were captured through an affinity tag (6×Histidine tag) onto the sensorchip. High-concentration (100.0 nM) of human CD30 (R&D systems, Cat. #6126-CD) flowed over the sensorchip surface, and were allowed to bind the antibody fragments for 300 s followed by injection of the running buffer to allow dissociation of the complex. On-rate ([…] and off-rate (kd) were roughly calculated based on one association and dissociation curve, and were used to estimate the equilibrium dissociation constant (KD). 5F11 scFv (SEQ ID NO:216, prepared according to WO2017066122) was used as a positive control. Data were summarized in Table 3 below. The first 10 antibodies in Table 3 were sdAbs with amino acid sequence ID numbers summarized in Table 1, the last antibody was 5F11 scFv, and the remainings were human Fabs with CDR and scFv amino acid sequence ID numbers in Table 2.

B1: AS53574VH7-AS47863VH4bil-bbz CAR (other)
chain: EVQLVESGGGLVQPGGSLRLSCAASGYIYSSNCMGWFRQAPGKGREWVARIHTGSGSTYYADSVKGRFTISQDNSKNTLYLQMNSLRAEDTAVYDCAAGRVVLGAVVCTNEYWGQGTLVTVSSGGGGSGGGGSGGGGSEVQLVESGGGLVQPGGSLRLSCAASGSTFGDSDMGWYRQAPGKGCELVSIISSDGRTYYVDSVKGRFTISQDNSKNTLYLQMNSLRAEDTAVYYCAADLRQYCRDGRCCGYWGQGTLVTVSSTTTPAPRPPTPAPTIASQPLSLRPEACRPAAGGAVHTRGLDFACDIYIWAPLAGTCGVLLLSLVITLYCKRGRKKLLYIFKQPFMRPVQTTQEEDGCSCRFPEEEEGGCELRVKFSRSADAPAYKQGQNQLYNELNLGRREEYDVLDKRRGRDPEMGGKPRRKNPQEGLYNELQKDKMAEAYSEIGMKGERRRGKGHDGLYQGLSTATKDTYDALHMQALPPR
% H9 cell lysis E:T = 2:1 (LDH assay, CAR T cells) [1]: 72%
% MJ cell lysis E:T = 1:1 (LDH assay, CAR T cells) [1]: 56%
% H9 cell lysis E:T = 0.2:1 (FACS method, CAR T cells) [2]: 41.6%
% MJ cell lysis E:T = 0.2:1 (FACS method, CAR T cells) [2]: 71.3%

B2: AS48463VH4dil-bbz CAR (other)
chain: EVQLLESGGGLVQPGGSLRLSCAASGFTFANSDMGWYRQAPGKGCELVSIISSHGGTTYYVDSVKGRFTISRDNSKNTLYLQMNSLRAEDTAVYYCVADPRSNCRGGYCCGYWGQGTLVTVSSGGGGSGGGGSGGGGSEVQLLESGGGLVQPGGSLRLSCAASGFTFANSDMGWYRQAPGKGCELVSIISSHGGTTYYVDSVKGRFTISRDNSKNTLYLQMNSLRAEDTAVYYCVADPRSNCRGGYCCGYWGQGTLVTVSSTTTPAPRPPTPAPTIASQPLSLRPEACRPAAGGAVHTRGLDFACDIYIWAPLAGTCGVLLLSLVITLYCKRGRKKLLYIFKQPFMRPVQTTQEEDGCSCRFPEEEEGGCELRVKFSRSADAPAYKQGQNQLYNELNLGRREEYDVLDKRRGRDPEMGGKPRRKNPQEGLYNELQKDKMAEAYSEIGMKGERRRGKGHDGLYQGLSTATKDTYDALHMQALPPR
% H9 cell lysis E:T = 2:1 (LDH assay, CAR T cells) [1]: 63%
% MJ cell lysis E:T = 1:1 (LDH assay, CAR T cells) [1]: 53%
% H9 cell lysis E:T = 0.2:1 (FACS method, CAR T cells) [2]: 30.8%
% MJ cell lysis E:T = 0.2:1 (FACS method, CAR T cells) [2]: 26.3%

B3: AS48481 sdAb (VHH)
VHH: EVQLVASGGGSVQAGETLRLSCTASGFTFADSAMGWYRKGPGNVCDLVAIIRTDGTTYYGDSAKGRFTISRDNAKSTLYLQMNSLKPEDTAVYFCAADRETSFIGGSWCVAKYWDQGTQVTVSS
notes: Camel sdAb
binding result (rhesus CD30 ECD): binds
Kd [3]: 0.095 µM
koff [3]: 0.0081 s⁻¹
kon [3]: 86000 M⁻¹ s⁻¹
rhCD30 Binding (RU) [3]: 26.3 RU

B4: AS48542VH5dil-bbz CAR (other)
chain: EVQLVESGGGLVQPGGSLRLSCATSAFTFDGPDMAWYRQAPGKGCELVSIISADGRTYYADSVKGRFTISRDNSKNTVYLQMNSLRAEDTAVYYCALDPRKNCRGGYCCANWGQGTLVTVSSGGGGSGGGGSGGGGSEVQLVESGGGLVQPGGSLRLSCATSAFTFDGPDMAWYRQAPGKGCELVSIISADGRTYYADSVKGRFTISRDNSKNTVYLQMNSLRAEDTAVYYCALDPRKNCRGGYCCANWGQGTLVTVSSTTTPAPRPPTPAPTIASQPLSLRPEACRPAAGGAVHTRGLDFACDIYIWAPLAGTCGVLLLSLVITLYCKRGRKKLLYIFKQPFMRPVQTTQEEDGCSCRFPEEEEGGCELRVKFSRSADAPAYKQGQNQLYNELNLGRREEYDVLDKRRGRDPEMGGKPRRKNPQEGLYNELQKDKMAEAYSEIGMKGERRRGKGHDGLYQGLSTATKDTYDALHMQALPPR
% H9 cell lysis E:T = 2:1 (LDH assay, CAR T cells) [1]: 66%
% MJ cell lysis E:T = 1:1 (LDH assay, CAR T cells) [1]: 64%
% H9 cell lysis E:T = 0.2:1 (FACS method, CAR T cells) [2]: 40.4%
% MJ cell lysis E:T = 0.2:1 (FACS method, CAR T cells) [2]: 63.4%

B5: AS53574VH7-AS48463VH4bil-bbz CAR (other)
chain: EVQLVESGGGLVQPGGSLRLSCAASGYIYSSNCMGWFRQAPGKGREWVARIHTGSGSTYYADSVKGRFTISQDNSKNTLYLQMNSLRAEDTAVYDCAAGRVVLGAVVCTNEYWGQGTLVTVSSGGGGSGGGGSGGGGSEVQLLESGGGLVQPGGSLRLSCAASGFTFANSDMGWYRQAPGKGCELVSIISSHGGTTYYVDSVKGRFTISRDNSKNTLYLQMNSLRAEDTAVYYCVADPRSNCRGGYCCGYWGQGTLVTVSSTTTPAPRPPTPAPTIASQPLSLRPEACRPAAGGAVHTRGLDFACDIYIWAPLAGTCGVLLLSLVITLYCKRGRKKLLYIFKQPFMRPVQTTQEEDGCSCRFPEEEEGGCELRVKFSRSADAPAYKQGQNQLYNELNLGRREEYDVLDKRRGRDPEMGGKPRRKNPQEGLYNELQKDKMAEAYSEIGMKGERRRGKGHDGLYQGLSTATKDTYDALHMQALPPR
% H9 cell lysis E:T = 2:1 (LDH assay, CAR T cells) [1]: 78%
% MJ cell lysis E:T = 1:1 (LDH assay, CAR T cells) [1]: 59%
% H9 cell lysis E:T = 0.2:1 (FACS method, CAR T cells) [2]: 38.3%
% MJ cell lysis E:T = 0.2:1 (FACS method, CAR T cells) [2]: 40.7%

B6: AS53574VH7-AS48542VH5bil-bbz CAR (other)
chain: EVQLVESGGGLVQPGGSLRLSCAASGYIYSSNCMGWFRQAPGKGREWVARIHTGSGSTYYADSVKGRFTISQDNSKNTLYLQMNSLRAEDTAVYDCAAGRVVLGAVVCTNEYWGQGTLVTVSSGGGGSGGGGSGGGGSEVQLVESGGGLVQPGGSLRLSCATSAFTFDGPDMAWYRQAPGKGCELVSIISADGRTYYADSVKGRFTISRDNSKNTVYLQMNSLRAEDTAVYYCALDPRKNCRGGYCCANWGQGTLVTVSSTTTPAPRPPTPAPTIASQPLSLRPEACRPAAGGAVHTRGLDFACDIYIWAPLAGTCGVLLLSLVITLYCKRGRKKLLYIFKQPFMRPVQTTQEEDGCSCRFPEEEEGGCELRVKFSRSADAPAYKQGQNQLYNELNLGRREEYDVLDKRRGRDPEMGGKPRRKNPQEGLYNELQKDKMAEAYSEIGMKGERRRGKGHDGLYQGLSTATKDTYDALHMQALPPR
% H9 cell lysis E:T = 2:1 (LDH assay, CAR T cells) [1]: 84%
% MJ cell lysis E:T = 1:1 (LDH assay, CAR T cells) [1]: 76%
% H9 cell lysis E:T = 0.2:1 (FACS method, CAR T cells) [2]: 29.8%
% MJ cell lysis E:T = 0.2:1 (FACS method, CAR T cells) [2]: 50.5%

B7: AS47863VH4dil-bbz CAR (other)
chain: EVQLVESGGGLVQPGGSLRLSCAASGSTFGDSDMGWYRQAPGKGCELVSIISSDGRTYYVDSVKGRFTISQDNSKNTLYLQMNSLRAEDTAVYYCAADLRQYCRDGRCCGYWGQGTLVTVSSGGGGSGGGGSGGGGSEVQLVESGGGLVQPGGSLRLSCAASGSTFGDSDMGWYRQAPGKGCELVSIISSDGRTYYVDSVKGRFTISQDNSKNTLYLQMNSLRAEDTAVYYCAADLRQYCRDGRCCGYWGQGTLVTVSSTTTPAPRPPTPAPTIASQPLSLRPEACRPAAGGAVHTRGLDFACDIYIWAPLAGTCGVLLLSLVITLYCKRGRKKLLYIFKQPFMRPVQTTQEEDGCSCRFPEEEEGGCELRVKFSRSADAPAYKQGQNQLYNELNLGRREEYDVLDKRRGRDPEMGGKPRRKNPQEGLYNELQKDKMAEAYSEIGMKGERRRGKGHDGLYQGLSTATKDTYDALHMQALPPR
% H9 cell lysis E:T = 2:1 (LDH assay, CAR T cells) [1]: 64%
% MJ cell lysis E:T = 1:1 (LDH assay, CAR T cells) [1]: 50%
% H9 cell lysis E:T = 0.2:1 (FACS method, CAR T cells) [2]: 44.2%
% MJ cell lysis E:T = 0.2:1 (FACS method, CAR T cells) [2]: 30.4%
